Measured values taken from patent US20200079847A1 (H LUNDBECK A S, published 2020).
Read-outs that look alike come from different tables or passages of the source.

Experiments:
[1] = biological target: T1, Vasoactive Intestinal Peptide (VIP) (human); assay: competitive HTRF: unlabelled VIP (10x) against biotinylated PACAP38 (35 nM) for the titrated antibody
T1 construct: also called human VIP
T1 peptide: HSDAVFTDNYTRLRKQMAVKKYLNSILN
Procedure: In parallel, 10 μl of an antibody dilution series (highest final concentration of 100 nM) were incubated with 10 μl of N-terminal or C-terminal biotinylated PACAP38 (35 nM final) alone, or in combination with either PACAP27 (350 nM final) or VIP (350 nM final), i.e., 10× PACAP27 or 10×VIP, respectively, in a HTRF plate. 20 μl of Eu³⁺ cryptate labeled anti-hu Fc donor and 20 μl of d2-labeled streptavidin acceptor were added to each well and incubated for 1 hour at room temperature. Fluorescence was measured at 620 and 665 nm with a delay of […].

[2] = biological target: T2, Pituitary Adenylate Cyclase-Activating Polypeptide 27 (PACAP27) (Homo sapiens, C-terminal leucine is amidated); assay: SPR, antibody immobilized
T2 peptide: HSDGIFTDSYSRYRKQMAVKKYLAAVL
Procedure: (§1) Binding affinities of monoclonal antibodies for human PACAP were estimated using SPR on the PROTEON™ XPR36 (Bio-Rad, Hercules, Calif.). Antibody was immobilized to the surface of general amine coupling (“GLC” or “GLM”) Chips (Bio-Rad, Hercules, Calif.). […] Antigen (ranging from 1.23 nM to 100 nM) was typically run sequentially with association times of 2-4 minutes and dissociation times of 3-120 minutes grouped with the PROTEON™ Manager Software (v3.1.0.6 (Bio-Rad, Hercules, Calif.)) and fitted using a 1:1 Langmuir binding model.

[3] = biological target: T3, Pituitary Adenylate Cyclase-Activating Polypeptide 38 (PACAP38) (Homo sapiens, C-terminal lysine is amidated); assay: DELFIA TRF cell-surface binding: antibody pre-incubated with PACAP38, complex added to PAC1-R-expressing PC-12 cells, Eu anti-human IgG detection; PACAP38 held on the cell surface is the target
T3 construct: unlabeled peptide in SPR; also called human PACAP; huPACAP (1-38)
T3 peptide: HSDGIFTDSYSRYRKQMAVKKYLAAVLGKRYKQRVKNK

[4] = biological target: T3, Pituitary Adenylate Cyclase-Activating …; assay: as above
[5] = biological target: T3, Pituitary Adenylate Cyclase-Activating …; assay: as above
[6] = biological target: T3, Pituitary Adenylate Cyclase-Activating …; assay: SPR, antibody immobilized
Procedure: as §1

[7] = biological target: T3, Pituitary Adenylate Cyclase-Activating …; assay: DELFIA TRF cell-surface binding: antibody pre-incubated with PACAP38, complex added to PAC1-R-expressing PC-12 cells, Eu anti-human IgG detection; PACAP38 held on the cell surface is the target
[8] = biological target: T3, Pituitary Adenylate Cyclase-Activating …; assay: cell-based or functional assay
[9] = biological target: T3, Pituitary Adenylate Cyclase-Activating …; assay: cell-based or functional assay
[10] = biological target: T2, Pituitary Adenylate Cyclase-Activating …; assay: cell-based or functional assay
[11] = biological target: T3, Pituitary Adenylate Cyclase-Activating …; assay: cell-based or functional assay

B1: Ab9 (antibody, human IgG1, kappa, N297A, V domains shown)
VH: EQSGGGAEGGLVKPGGSLKLSCKASGFTISRDYWICWVRQAPGKGLEWIGCISAGGGSTDYANWVNGRFTLSRDIDQSTGCLQLNSLTDADTAMYYCAGNLEIWGQGTLVTVSS
VL: AQVLTQTPSSVSAAVGGTVTINCQSSPSIYSGAFLSWFQQKPGQPPKFLIYEASKLASGVPSRFSGSGSGTQFTLTISDVQCDDAATYYCLGFYDCSSVDCHAFGGGTEVVVKR
notes: full-length antibody, rabbit variable regions on human constant regions
Question: Does B1 bind [1]?
Answer: Result: no binding

B2: Ab4.H (antibody, V domains shown)
VH: EVQLVESGGGLVQPGGSLRLSCAASGFSLSSYDMSWVRQAPGKGLEWIGIINTNDDTWYASWVKGRFTISRDNSKNTLYLQMNSLRAEDTAVYYCARISDAYVFDYAYYFTLWGQGTLVTVSS
VL: DIQMTQSPSTLSASVGDRVTITCLASQNIYNSLAWYQQKPGKAPKLLIYRASTLASGVPSRFSGSGSGTEFTLTISSLQPDDFATYYCQQGAGADNIGNPFGGGTKVEIKR
Question: For B2, which Kd [2] is on record?
Answer: Its Kd is 0.031 nM.

Question: And the koff [2]?
Answer: The koff was 1e-05 s⁻¹.

Question: What about the “EC50 (read off the curve)” value [3] of the same binder?
Answer: Its value is roughly 4 nM.

B3: Ab5.H (antibody, V domains shown)
VH: EVQLVESGGGLVQPGGSLRLSCAASGFSLSSYAMIWVRQAPGKGLEWVGIIYDNGDTYYASSAKGRFTISRDNSKNTVYLQMNSLRAEDTAVYFCAREPGSTTQNDLWGQGTLVTVSS
VL: DVQMTQSPSTLSASVGDRVTITCQASENIYNSLLWYQQKPGKAPKLLIYRASTLASGVPSRFSGSGSGTEFTLTISSLQPDDFATYYCQNYYNIWTNGAAFGGGTKVEIKR
Question: For B3, which “EC50 (read off the curve)” value [4] is on record?
Answer: Its value is roughly 3 nM.

B4: Ab3.H (antibody, V domains shown)
VH: EVQLVESGGGLVQPGGSLRLSCAASGFSFSSSDYMCWVRQAPGKGLEWIGCIDAGSSGDTYFASSAKGRFTISRDNSKNTVYLQMNSLRAEDTAVYFCARHLYGSITFAFGLWGQGTLVTVSS
VL: AAQMTQSPSTLSASVGDRVTITCQASQSIGSDLAWYQQKPGKAPKLLIYDASTLASGVPSRFSGSGSGTEFTLTISSLQPDDFATYYCQGTYYSSGWYTAFGGGTKVEIKR
Question: For B4, which “EC50 (read off the curve)” value [5] is on record?
Answer: Its value is roughly 3 nM.

B5: Ab3 (antibody, human IgG1, kappa, N297A, V domains shown)
VH: QEQLVESGGGLVQPEGSLTLTCTASGFSFSSSDYMCWVRQAPGKGLEWIGCIDAGSSGDTYFASWAKGRFTISKTSSTTVTLQMTSLTAADTATYFCARHLYGSITFAFGLWGQGTLVTVSS
VL: AAVLTQTPSPVSAAVGGTVTINCQASQSIGSDLAWYQQKPGQPPKLLIYDASTLASGVPSRFSGSGSGTQFTLTISGVQCDDAATYYCQGTYYSSGWYTAFGGGTEVVVKR
notes: as for B1
Question: Does B5 bind [1]?
Answer: Result: no binding

B6: Ab1 (antibody, human IgG1, kappa, N297A, V domains shown)
VH: QSVEESGGRLVTPGTPLTLTCTVSGFSLSSAVMNWVRQAPGKGLEWIGSIVASGTTYYASWANGRFTISKTSSTTMDLKMTSPTTEDTATYFCARGGGEFFIWGPGTLVTVSS
VL: DPVMTQTPSSTSAAVGGTVTISCQSSESVYSNYLSWYQQKPGQPPNFLIYQASNLASGVPSRFKGSGSGTQFTLTITDLECDDAATYYCAGGYSENIVGFGGGTEVVVKR
notes: as for B1
Question: How did the Kd [2] turn out when B6 was run?
Answer: The Kd was no more than 0.01 nM.

B7: Ab12.H (antibody, V domains shown)
VH: EVQLVESGGGLVQPGGSLRLSCAASGFSLSSYAMGWVRQAPGKGLEWIGDISTYGTTDYASWVYGRFTISRDNSKNTVYLQMNSLRAEDTAVYFCARDYWLSLWGQGTLVTVSS
VL: AAQLTQSPSTLSASVGDRVTITCQSSQSVYDNNALAWYQQKPGKAPKLLIYAASTLASGVPSRFSGSGSGTEFTLTISSLQPDDFATYYCLGGYYDPADNAFGGGTKVEIKR
Question: How did the Kd [6] turn out when B7 was run?
Answer: The Kd was 0.026 nM.

Question: What about the koff [6] of the same binder?
Answer: Its koff is 1e-05 s⁻¹.

Question: What about the “EC50 (read off the curve)” value [7] of the same binder?
Answer: Its value is roughly 3 nM.

B8: Ab10.H (antibody, V domains shown)
VH: EVQLVESGGGLVQPGGSLRLSCAASGIDLNSYYMTWVRQAPGKGLEWIGFIDAGGDAYYASWAKGRFTISRDNSKNTVYLQMNSLRAEDTAVYFCARDLDLWGQGTLVTVSS
VL: DAQLTQSPSTLSASVGDRVTITCQSSESVYGNYLAWFQQKPGKAPKFLIYEASKLESGVPSRFSGSGSGTEFTLTISSLQPDDFATYYCAGGDISEGVAFGGGTKVEIKR
Question: B8 was tested. Which “IC50, 1 nM PACAP38-induced human VPAC2-R mediated cAMP increase” value [8] did it give?
Answer: Its value is 0.988 nM.

Question: What about the “IC50, 5 nM PACAP38-induced human VPAC1-R mediated cAMP increase” value [9] of the same binder?
Answer: Its value is 1.34 nM.

Question: And the “IC50, 0.1 nM PACAP27-induced PAC1-R mediated cAMP increase” value [10]?
Answer: The value was 0.084 nM.

Question: And the “IC50, 0.1 nM PACAP38-induced PAC1-R mediated cAMP increase” value [11]?
Answer: Its value is 0.163 nM.
